# Patent publication US7479480B2, “Peptides that promote lipid efflux” (Lipid Sciences, Inc., priority 2006, dated 2009)
# Ends that are not written are not given here.
# Tests used:
# [1] = target: T1, ABCA1 (Mus musculus, UniProt P41233); assay: ABCA1 mediated cholesterol efflux; format: cell-based; set-up: +ABCA1 Cells / −ABCA1 Cells: unit not given here; conditions: for cholesterol efflux via the ABCA-I pathway: Example 17, J774 macrophages; for +ABCA1 Cells / −ABCA1 Cells / ABCA1 Mediated Efflux % Per 4 h: minus blank; for dose dependence of cholesterol efflux from cells containing the ABCA1 pathway (FIG. 3): range of 5 ug/ml to 30 ug/ml; for efflux of cholesterol from J774 macrophage cells (ABCA1 pathway): result in words
# T1 construct: endogenous in cells; host or cells: J774 mouse macrophage cells
# From the text: (§1) The methods employed in this study have been described in U.S. Pat. Nos. 7,029,863, 7,060,452, U.S. Patent Application Publication No. 2005/0191715, and in Moya et al., Arteriosclerosis & Thrombosis 1994:14:1056-1065 and Liu et al., J. Biol. Chem., 2003:278(44), 42976-42984. SR-B1 mediated cholesterol efflux was examined in FU5AH rat hepatoma cells and ABCA1 mediated cholesterol efflux was examined in J774 mouse macrophage cells as described in these references.
# (§2) J774 macrophages and Fu5AH […] in culture were used to determine the specificity of SEQ ID NO: 602 to efflux cholesterol by the ABCA-I or SRBI pathways using the methods of de la Llera Moya, M., V., et al. “A cell culture system for screening human serum for ability to promote cellular cholesterol efflux. Relations between serum components and efflux, esterification, and transfer.” Arterioscler. Thromb. 14: 1056-1065 (1994). Anti-inflammatory properties were evaluated by determination of inhibition of expression of activated CD11B human monocytes and suppression of cytokine-induced vascular cell adhesion molecule-1, V-CAM, expression in human coronary artery endothelial cells (HCAECs).
# [2] = target: T2, SR-B1 (Rattus norvegicus, UniProt P97943); assay: SR-BI mediated cholesterol efflux; format: cell-based; conditions: for SR-BI Mediated Efflux % Per 4 h: minus blank; for cholesterol efflux from the Fu5AH cells (SRB1 pathway): result in words
# T2 construct: endogenous in cells; host or cells: Fu5AH rat hepatoma cells
# T2 sequence (P97943 1-509): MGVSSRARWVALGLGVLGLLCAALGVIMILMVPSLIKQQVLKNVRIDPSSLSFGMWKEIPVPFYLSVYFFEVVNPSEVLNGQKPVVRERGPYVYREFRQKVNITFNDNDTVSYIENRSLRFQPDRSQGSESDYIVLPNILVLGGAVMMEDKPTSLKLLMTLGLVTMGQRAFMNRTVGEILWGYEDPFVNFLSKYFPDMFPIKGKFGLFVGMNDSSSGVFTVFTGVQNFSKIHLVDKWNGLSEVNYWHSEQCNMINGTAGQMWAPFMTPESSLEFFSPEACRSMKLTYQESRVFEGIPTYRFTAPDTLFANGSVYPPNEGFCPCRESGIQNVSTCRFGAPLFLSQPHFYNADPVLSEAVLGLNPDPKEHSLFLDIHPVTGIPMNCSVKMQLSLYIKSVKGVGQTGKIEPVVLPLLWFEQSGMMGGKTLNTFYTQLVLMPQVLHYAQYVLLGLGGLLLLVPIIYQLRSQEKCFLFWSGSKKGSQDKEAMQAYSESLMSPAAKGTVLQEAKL
# From the text: as §1, §2
# [3] = system: vascular cell adhesion molecule-1; assay: Cytokine-induced V-CAM expression in human coronary artery endothelial cells; format: cell-based; conditions: initial data; p<0.05
# Method: as §2
# [4] = system: ApoE knockout and LDL receptor knockout mice; assay: Aortic atherosclerosis in ApoE and LDL receptor knockout mice (Example 14); format: in vivo, mouse; conditions: 30 mg/kg ip three times per week, 4-5 or 8-10 weeks
# Method: The mice receive 3 injections per week for either 4-6 or 8-10 weeks. After the completion of the injection, the amount of hardening of the arteries or atherosclerosis is determined in the control injected animals and peptide injected animals to determine if the injections of the synthetic peptide decreased development of atherosclerosis.
# For infusion studies B and C, mice are injected ip with either placebo or a synthetic peptide of the present invention (30 mg/kg) three times per week for either 4 to 5 weeks (Infusion Study B) or 8 to 10 weeks (Infusion Study C). Blood for lipid and lipoprotein analyses is obtained at the beginning of the study (day 0) and every two weeks after placebo/peptide injection and at the completion of the study. At the completion of the study (4 to 5 weeks for Infusion Study B and 8 to 10 weeks for Infusion Study C), the animals are sacrificed, organs harvested for analyses of cholesterol content and for aortic atherosclerosis.
# No more than 300 ul blood every two weeks is obtained from each mouse. • 4) At the end of Infusion Study B and C all mice are sacrificed by cervical dislocation following isoflurane anesthesia and organs are harvested for analyses of cholesterol as well as aortic atherosclerosis. Before intraperitoneal injections, brief inhaled analgesia is obtained by isoflurane utilizing the E-Z Rodent Anesthesia System in the procedure room. […]
# [5] = system: CD11b; assay: CD11b expression in stimulated monocytes by flow cytometry; format: cell-based, human; conditions: for PMA-induced CD11b expression in human monocytes: 20 μg/ml, PMA 1 μmol/L, FIG. 2
# Method: Monocyte Isolation Peripheral whole blood (PWB) was drawn from healthy consenting individuals into syringes containing sodium citrate (final concentration—19.2 mM). Resting human monocytes were isolated from PWB by density centrifugation with Lymphoprep (Axis Shield). Mononuclear cells (MNCs) were collected and monocytes were further separated to purity using the Dynal negative isolation kit (Invitrogen). Monocytes were resuspended in phosphate buffered saline (PBS) and cell number was determined counting cell suspension on an automated hematology analyzer (Sysmex, KX-21N, USA).
# Flow Cytometry 100 μL of monocytes were stimulated with either 1 μmol/L phorbol-myristate-acetate (PMA) or 1 μg/ml lipopolysaccharide (LPS) (Sigma, Australia) in the presence or absence of apoA-1 (20 μg/ml), or 20 μg/ml of the test peptide SEQ ID NO: 602 (Ac-[…]NH2), each tested separately. The cells were incubated with the FITC conjugated antibody to either the active epitope of CD11b (eBiosciences, USA, Clone CBRM1/5) or total CD11b (Serotec, USA, Clone ICRF44) for 15 min at 37° C. Cells were then fixed with 4% para-formaldehyde. Samples were controlled for by using the appropriately matched isotype matched negative control (FITC-anti-mouse IgG) (Serotec, USA, Clone W3/25). CD11b expression was measured by flow cytometry using FACS Calibur (Becton Dickinson). Analysis was conducted using the Cell Quest Pro software.
# Statistical Analysis Values are presented as the mean±SD or percentage of control±SD. FACS results were analyzed for statistical significance using one-way ANOVA followed by Bonferroni post-hoc test. Significance was accepted at P<0.05.
# as §2
# [6] = system: HeLa cells transfected with only a hygromycin-resistant control plasmid; assay: Cholesterol and phospholipid efflux from control cells; format: cell-based, human; conditions: result in words
# Method: (§3) HeLa cells stably transfected with human ABCA1 cDNA (ABCA1 cells) and HeLa cells transfected with only a hygromycin-resistant control plasmid (control cells) are produced and grown in α-modified Eagle's medium (aMEM) plus 10% fetal calf serum, as described by Remaley et al. (Biochem. Biophys. Res. Commun. 280:818-823, 2001). Cholesterol and phospholipid efflux is performed for 18 hours on noncholesterol-loaded cells radiolabeled with either cholesterol or choline (Remaley et al., Arterioscler. Thromb. Vasc. Biol. 17:1813-1821, 1997). Percentage efflux is calculated after subtracting the radioactive counts in the blank media (aMEM plus 1 mg/ml of BSA), and expressed as the percent of total radioactive counts removed from the cells during the efflux period.
# ABCA1 cells are used to assess the ability of apoA-I and synthetic peptides to efflux lipid from cells. […] The peptides of the present invention efflux approximately 2- to 4-fold more cholesterol and phospholipid from ABCA1 cells than from control cells. Both the peptides of the present invention and apoA-I began to show saturation for lipid efflux at approximately the same protein concentration of 10 μg/ml. The peptides of the present invention remove more cholesterol and phospholipids from control cells than apoA-I. […]
# [7] = system: HeLa cells stably transfected with human ABCA1 cDNA; assay: Cholesterol and phospholipid efflux from ABCA1 cells; format: cell-based
# Method: as §3, with “Cholesterol and phospholipid efflux is performed for 18 hours on noncholesterol-loaded cells radiolabeled with either cholesterol or choline (Remaley et al., Arterioscler.” left out
# ABCA1 cells are used to assess the ability of apoA-I and synthetic peptides to efflux lipid from cells. […] The peptides of the present invention efflux approximately 2- to 4-fold more cholesterol and phospholipid from ABCA1 cells than from control cells. Both the peptides of the present invention and apoA-I began to show saturation for lipid efflux at approximately the same protein concentration of 10 μg/ml. The peptides of the present invention remove more cholesterol and phospholipids from control cells than apoA-I.
# Cholesterol efflux from ABCA1 cells to apoA-I is first detectable after 2 hours and increases throughout the 30 hour efflux period. […]
# [8] = J774 cells, peptides at 30 μg/ml
# [9] = J774 cells, peptides at 30 μg/ml, listed as 5
# [10] = J774 mouse macrophage cells, peptides at 30 μg/ml
# [11] = FU5AH rat hepatoma cells, peptides at 30 μg/ml
# [12] = J774 cells, peptides at 30 μg/ml, listed as 3
# [13] = controls: 2% human serum pool, Apo A-I @ 20 μg/ml
# T1 sequence (P41233 whole entry): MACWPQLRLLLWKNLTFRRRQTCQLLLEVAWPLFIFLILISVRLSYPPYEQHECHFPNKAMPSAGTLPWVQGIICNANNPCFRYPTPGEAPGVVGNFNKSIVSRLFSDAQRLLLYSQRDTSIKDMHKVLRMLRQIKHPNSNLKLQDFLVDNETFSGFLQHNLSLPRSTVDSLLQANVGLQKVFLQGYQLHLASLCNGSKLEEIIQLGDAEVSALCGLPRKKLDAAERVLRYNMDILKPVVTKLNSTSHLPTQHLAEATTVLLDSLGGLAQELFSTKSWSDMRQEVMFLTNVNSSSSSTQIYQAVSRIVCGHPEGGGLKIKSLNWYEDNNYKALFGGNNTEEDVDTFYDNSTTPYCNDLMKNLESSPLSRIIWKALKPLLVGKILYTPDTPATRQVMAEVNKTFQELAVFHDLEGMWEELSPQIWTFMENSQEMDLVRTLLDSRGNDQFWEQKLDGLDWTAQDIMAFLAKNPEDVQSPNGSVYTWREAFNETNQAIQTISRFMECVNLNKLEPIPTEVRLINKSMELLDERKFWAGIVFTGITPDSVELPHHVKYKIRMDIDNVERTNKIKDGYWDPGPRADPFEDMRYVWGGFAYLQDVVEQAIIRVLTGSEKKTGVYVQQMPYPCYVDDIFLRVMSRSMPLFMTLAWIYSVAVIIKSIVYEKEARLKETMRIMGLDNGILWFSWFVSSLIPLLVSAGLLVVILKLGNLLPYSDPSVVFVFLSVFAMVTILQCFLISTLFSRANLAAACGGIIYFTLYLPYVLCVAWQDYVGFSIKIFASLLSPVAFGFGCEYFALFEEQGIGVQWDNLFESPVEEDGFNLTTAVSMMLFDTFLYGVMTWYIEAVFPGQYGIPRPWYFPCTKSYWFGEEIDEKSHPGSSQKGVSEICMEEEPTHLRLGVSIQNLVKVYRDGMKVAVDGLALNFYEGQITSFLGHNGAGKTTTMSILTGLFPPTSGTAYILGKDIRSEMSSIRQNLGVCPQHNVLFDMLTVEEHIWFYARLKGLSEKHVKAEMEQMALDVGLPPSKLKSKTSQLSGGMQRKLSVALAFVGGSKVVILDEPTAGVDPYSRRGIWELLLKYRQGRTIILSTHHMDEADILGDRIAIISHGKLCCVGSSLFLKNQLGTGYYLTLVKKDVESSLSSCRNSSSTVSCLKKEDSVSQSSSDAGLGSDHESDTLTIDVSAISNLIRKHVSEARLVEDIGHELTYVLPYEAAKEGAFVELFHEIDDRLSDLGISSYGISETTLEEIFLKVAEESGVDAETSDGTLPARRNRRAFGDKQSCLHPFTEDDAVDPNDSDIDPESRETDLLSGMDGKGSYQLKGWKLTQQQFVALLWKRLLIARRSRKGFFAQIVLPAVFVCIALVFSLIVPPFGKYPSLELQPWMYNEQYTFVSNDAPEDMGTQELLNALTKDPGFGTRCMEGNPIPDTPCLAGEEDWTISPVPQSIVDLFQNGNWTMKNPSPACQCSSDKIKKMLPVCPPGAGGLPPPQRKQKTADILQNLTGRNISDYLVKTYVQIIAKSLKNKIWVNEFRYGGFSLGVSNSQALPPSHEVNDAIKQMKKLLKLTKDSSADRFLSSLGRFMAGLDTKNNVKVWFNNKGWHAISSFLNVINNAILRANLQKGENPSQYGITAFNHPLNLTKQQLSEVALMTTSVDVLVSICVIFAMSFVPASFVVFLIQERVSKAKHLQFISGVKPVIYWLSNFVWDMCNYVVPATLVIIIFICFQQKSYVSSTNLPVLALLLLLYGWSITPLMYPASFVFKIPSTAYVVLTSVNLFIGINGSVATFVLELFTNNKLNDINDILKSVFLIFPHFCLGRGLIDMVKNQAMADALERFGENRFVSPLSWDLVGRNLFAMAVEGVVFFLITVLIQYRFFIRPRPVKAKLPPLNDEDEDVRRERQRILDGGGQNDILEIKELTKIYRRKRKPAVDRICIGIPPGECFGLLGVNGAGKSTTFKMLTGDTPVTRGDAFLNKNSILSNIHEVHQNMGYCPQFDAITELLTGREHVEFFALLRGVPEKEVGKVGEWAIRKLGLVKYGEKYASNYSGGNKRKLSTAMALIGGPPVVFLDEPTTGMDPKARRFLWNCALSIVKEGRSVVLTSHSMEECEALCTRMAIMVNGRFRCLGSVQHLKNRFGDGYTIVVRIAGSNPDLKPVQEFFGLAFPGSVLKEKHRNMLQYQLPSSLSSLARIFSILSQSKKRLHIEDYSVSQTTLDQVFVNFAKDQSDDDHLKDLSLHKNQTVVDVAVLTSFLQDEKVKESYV
"+ABCA1 Cells [1, 8]","−ABCA1 Cells [1, 8]","ABCA1 Mediated Efflux % Per 4 h [1, 10] [% Per 4 h]",dose dependence of cholesterol efflux from cells containing the ABCA1 pathway (FIG. 3) [1],efflux of cholesterol from J774 macrophage cells (ABCA1 pathway) [1],"SR-BI Mediated Efflux % Per 4 h [2, 11] [% Per 4 h]",cholesterol efflux from the Fu5AH cells (SRB1 pathway) [2],Substance,cholesterol efflux via the ABCA-I pathway [1],aortic atherosclerosis compared to controls [4],PMA-induced CD11b expression in human monocytes [5],further results
14.283 ± 0.545,1.205 ± 0.211,13.08,dose dependent stimulation,stimulated efflux of cholesterol,0.16,negligible or no effect,Ser Pro Leu Ser Asp Glu Lcu Arg Gln Arg Lcu Ala Ala Arg Lcu Glu Ala Leu Lys Glu Asn Lys Leu Ser Pro Leu Leu Glu Ser Phe Lys Val Ser Phe Leu Ser Ala Leu Glu Glu Tyr Thr Lys Lys Leu Asn Thr Gln (SPLSDELRQRLAARLEALKENKLSPLLESFKVSFLSALEEYTKKLNTQ) [Peptide 2],–,–,–,"+ABCA1 Cells [1, 12]: 13.447 ± 0.549; −ABCA1 Cells [1, 12]: 1.306 ± 0.261; ABCA1 Mediated Efflux % Per 4 h ([1]; J774 mouse macrophage cells, peptides at 30 μg/ml, listed as 3): 12.14 % Per 4 h"
–,–,–,–,–,–,–,apolipoprotein A-I [Apo A-I],15.99%+2.07,–,decrease,"+ABCA1 Cells [1, 13]: 20.682 ± 0.724; ABCA1 Mediated Efflux % Per 4 h [1, 13]: 18.97 % Per 4 h; −ABCA1 Cells [1, 13]: 1.713 ± 0.409; cholesterol efflux from control cells (time course) [6]: no significant increase above background; SR-BI Mediated Efflux % Per 4 h [2, 13]: 0.26 % Per 4 h; protein concentration at which lipid efflux begins to show saturation [7]: ~10 µg/mL; time at which cholesterol efflux from ABCA1 cells is first detectable ([7]; 30 hour efflux period): 2 h; PMA-induced CD11b expression in human monocytes ([5]; listed as ApoA1): significantly reduced"
12.420 ± 1.019,1.224 ± 0.121,11.20,dose dependent stimulation,stimulated efflux of cholesterol,0.10,negligible or no effect,SPLLESAKVSALSALEEATKKKLSPLLESFKVSFLSALEEYTKKLNTQ [Peptide 4],–,decrease aortic atherosclerosis,–,–

Substance,"+ABCA1 Cells [1, 8]","−ABCA1 Cells [1, 8]","ABCA1 Mediated Efflux % Per 4 h [1, 10] [% Per 4 h]",dose dependence of cholesterol efflux from cells containing the ABCA1 pathway (FIG. 3) [1],efflux of cholesterol from J774 macrophage cells (ABCA1 pathway) [1],"SR-BI Mediated Efflux % Per 4 h [2, 11] [% Per 4 h]",cholesterol efflux from the Fu5AH cells (SRB1 pathway) [2],cholesterol efflux via the ABCA-I pathway [1],aortic atherosclerosis compared to controls [4],PMA-induced CD11b expression in human monocytes [5],further results
Ac-Ser Pro Leu Leu Glu Ser Ala Lys Val Ser Ala Leu Ser Ala Leu Glu Glu Ala Thr Lys Lys Lys Leu Ser Pro Leu Leu Glu Ser Phe Lys Val Ser Phe Leu Ser Ala Leu Glu Glu Tyr Thr Lys Lys Leu Asn Thr Gln-NH2 (Ac-SPLLESAKVSALSALEEATKKKLSPLLESFKVSFLSALEEYTKKLNTQ-NH2) [Peptide 1],20.338 ± 0.136,1.624 ± 0.126,18.71,dose dependent stimulation,stimulated efflux of cholesterol,0.15,negligible or no effect,15.34%+2.57,decrease aortic atherosclerosis,decrease,"+ABCA1 Cells [1, 9]: 15.718 ± 0.123; −ABCA1 Cells [1, 9]: 1.215 ± 0.288; ABCA1 Mediated Efflux % Per 4 h ([1]; J774 mouse macrophage cells, peptides at 30 μg/ml, listed as 5): 14.50 % Per 4 h; SRB-1 pathway activity (cholesterol efflux) ([2]; Example 17, Fu5AH cells): no SRB-1 pathway activity; SR-BI Mediated Efflux % Per 4 h ([2]; FU5AH rat hepatoma cells, peptides at 30 μg/ml, listed as 5): 0.25 % Per 4 h; V-CAM-1 mRNA levels in HCAECs [3]: decreases; PMA-induced CD11b expression in human monocytes ([5]; listed as SEQ ID NO: 602): significantly reduced; Inhibition of expression of CD11B on human monocytes ([5]; Example 17, p=<0.01, comparable to apo A-I): statistically significant"
